Test results as given in patent US20150232562A1 (Ablynx, published 2015).

target: T1, recombinant human ErbB2/Fc chimera (human, UniProt P04626 23-652); assay: ELISA, coated ErbB2/Fc
T1 construct: bought from R&D Systems; also called rhErbB2-Fc; rhErb2-Fc; Fc part of the bought chimera not given; not described

Binder | binding result
17B5 (VHH, C-term myc-His6 tag) VHH: EVQLVESGGGLVQTGGSLRLSCAASGSTFRTDMMGWYRQAPGKQREFVASITKFGSTNYADSVKGRFTISNDNAKDTVYLQMNSLKSEDTAVYYCRNFNRDLWGQGTQVTVSS | binds
13D7 (VHH, C-term myc-His6 tag) VHH: EVQLVESGGGLVQAGGSLRLSCAANGLTFRRYDMGWYRQAPGQQREWVAAISGAGDINYADSVKGRFTMARDNANHTVHLQMNSLKPEDTAVYYCNANWKMLLGVENDYWGQGTQVTVSS | binds
15G4 (VHH, C-term myc-His6 tag) VHH: EVQLVESGGGLVQAGGSLRLSCVASGIPFRSRTMAWYRQAPGKTRDWVATIGTHGTPLYADSVKGRFTVSRDNAKNTLYLQMNSLKPEDTAVYYCWDVNGDYWGQGTQVTVSS | binds
46G1 (VHH, C-term myc-His6 tag) VHH: EVQLVESGGGLVQAGGSLRLSCAASGRTFSDDAMGWFRQAPGKERECVASLYLNGDYPYYADSVKGRFTISRDNAKNAVILQMNNLKTEDTAVYYCAAKPGWVARDPSQYNYWGQGTQVTVSS | binds
46E4 (VHH, C-term myc-His6 tag) VHH: EVQLVESGGGLVQAGGSLRLSCAASGRAFKDDAVGWFRQAPGKERECVASMYLDGDYPYYADSVKGRFTISRDNAKNAVILQMNNLKTEDTAVYYCAAKPGWVARDPSEYNYWGQGTQVTVSS | binds
29E9 (VHH, C-term myc-His6 tag) VHH: EVQLVESGGGLVQPGGSLRLSCVASRIPASIRTMAWYRQTPGNQRDWLATIGSSGTPAYADSVKGRFTVSRDNAKNTVYLQMNSLKPEDTAVYYCRDVNGDYWGQGTQVTVSS | binds
13A8 (VHH, C-term myc-His6 tag) VHH: EVQLVESGGGLVQPGGSLRLSCAASGLGIAFSRRTMAWYRQAPGKQRDWVATIAGDGSTVYADSMKGRFTISRDNAENTVYLQMNSLKPEDTAVYYCWDVNRDYWGQGTQVTVSS | binds
15A4 (VHH, C-term myc-His6 tag) VHH: EVQLVESGGGLVQPGGSLRLSCAASGLGIAFSRRTMAWYRQAPGKQRDWVATIAGDGSTVYADSMKGRFTISRDNAKNTVYLQINSLKPEDTAVYYCWDVNRDYWGQGTQVTVSS | binds
27D3 (VHH, C-term myc-His6 tag) VHH: EVQLMESGGGLVQPGGSLRLSCAASGLGIAFSRRTMAWYRQAPGKQRDWVATIAGDGSTVYADSMKGRFTISRDNAENTVYLQMNSLKPEDTAVYYCWDVNRDYWGQGTQVTVSS | binds
17G5 (VHH, C-term myc-His6 tag) VHH: EVQLVESGGGLVQPGGSLRLSCAASGIGIAFSSRTMAWYRQAPGKQRDWVATIGSGGTTNYADSVKGRFTISRDNAKNTVYLQMNSLKPEDTAVYYCRDINRDYWGQGTQVTVSS | binds
17F5 (VHH, C-term myc-His6 tag) VHH: EVQLVESGGGLVQPGGSLRLSCAASGLGIAFSRRTMAWYRQAPGKQRDWVATIAGDGSTVYADSMKGRFTISRDNAKNTVYLQVNSLKPEDTAVYYCWDTNGDYWGQGTQVTVSS | binds
17C6 (VHH, C-term myc-His6 tag) VHH: EVQLVESGGGLVQAGGSLTLSCAASGSTSSLDIMAWYRQAPEKQRELVASVSGGGNSDYASSVKGRFTISGDTAKSTLYLQMNSLKPEDTAMYYCYGRDYYYMPFWGQGTQVTVSS | binds
15D12 (VHH, C-term myc-His6 tag) VHH: EVQLVESGGGLVQAGESLRLSCATSGITFKRYVMGWYRQGPGKQRELVATVNDGGTTSYADSVKGRFAISRDNAKNTAYLQMNSLKAEDTAVYYCNAVWKLPRFVDNDYWGQGTQVTVSS | binds
15C9 (VHH, C-term myc-His6 tag) VHH: EVQLVESGGGLVQAGGSLKLSCVNSGIPSTLRAMAWYRQAPGRQRDWVATSSNTGGTTYDDSVKGRFTISRDNAKNTVYLQMNSLKPEDTGVYYCRDVNRDLWGQGTQVTVSS | binds
13C4 (VHH, C-term myc-His6 tag) VHH: EVQLVESGGGLVQAGGSLRLSCVVSGIPSSIRAMAWYRQAPGRQRDWVATIYSPSGSAVYADSVKGRFTISSDNAKSTIYLQMNSLKPDDTAVYYCRDVNREYWGQGTQVTVSS | binds
13D4 (VHH, C-term myc-His6 tag) VHH: EVQLVESGGGLVQAGGSLRLSCVVSGIPSSIRAMAWYRQAPGRQRDWVATIYSPSGSAVYADSVKGRFTISSDNAKSTIYLQMNSLEPDDTAVYYCRDVNREYWGQGTQVTVSS | binds
15B11 (VHH, C-term myc-His6 tag) VHH: EVQLVESGGGSVQAGGSLRLSCVVSGIPSSIRAMAWYRQAPGRQRDWVATIYSRSGGAVYADSVKGRFTISSDNAKNTIYLQMNSLKPDDTAVYYCRDVNRDYWGQGTQVTVSS | binds
15G5 (VHH, C-term myc-His6 tag) VHH: EVQLVESGGGLVQAGGSLRLSCVVSGIPSTIRAMAWYRQAPGRQRDWVATIYSPSGSAVYADSVKGRFTISSDNAKKTIYLQMNSLKPDDTAVYYCRDVNREYWGQGTQVTVSS | binds
15B2 (VHH, C-term myc-His6 tag) VHH: EVQLVESGGGLVQAGGSLRLSCVVSGIPSSIRAMAWYRQAPGRQRDWVATIYSPSGSAVYADSVKGRFTISSDNAKSTIYLQMNSLKPDDTAVYYCRDVNRDYWGQGTQVTVSS | binds
15C8 (VHH, C-term myc-His6 tag) VHH: EVQLVESGGGLVQAGGSLRLSCAASGIAFRIRTMAWYRQAPGKQRDWVATSDSGGTTLYADSVKGRFTVSRDNAENTVYLQMNSLKPEDTAVYYCRDVNRDYWGQGTQVTVSS | binds
13B12 (VHH, C-term myc-His6 tag) VHH: EVQLVESGGGLVQAGGSLRLSCAASGIAFRIRTMAWYRQAPGKQRDWVATIGSDGTTIYADSVKGRFTLSRHNAENTVYLQMNSLKPEDTAVYYCRDVNRDYWGQGTQVTVSS | binds
15G10 (VHH, C-term myc-His6 tag) VHH: EVQLVESGGGLVQAGGSLSLSCAASGRFFSTRVMAWYRQTPGKQREFVASMRGSGSTNYADSARGRFAISRDNAKNTVYLQMNSLKPEDTAVYYCRDINEDQWGQGTQVTVSS | binds

Further lines, results first:

binding result | Binder
binds | 27C7 (VHH, C-term myc-His6 tag) VHH: EVQLVESGGGLVQAGGSLRLSCAASGIAFRIRTMAWYRQAPGKQRDWVATSDSGGTTLYADSVKGRFTVSRDNADNTVYLQMNSLKPEDTAVYYCRDVNRDYWGQGTQVTVSS
binds | 27B5 (VHH, C-term myc-His6 tag) VHH: EVQLVESGGGLVQAGGSLRLPCAASGIAFRIRTMAWYRQAPGKQRDWVATSDSGGTTLYADSVKGRFTVSRDNAENTVYLQMNSLKPEDTAVYYCRDVNRDYWGQGTQVTVSS
binds | 30D10 (VHH, C-term myc-His6 tag) VHH: EVQLVESGGGLVQAGGSLTLSCTASETTVRIRTMAWYRQPPGNQREWVATIGSNGFATYPDSVKGRFTISRDNAKNTVYLQMNSLKPEDTAVYYCRDINRDIWGQGSQVTVSS
binds | 17H10 (VHH, C-term myc-His6 tag) VHH: EVQLVESGGGLVQAGGSLSLSCSASGRFFSTRVMAWYRQTPGNQREFVATIHSSGSTIYADSVRGRFAISRDNAKNTVYLQMRSLKPEDTAVYYCRDINADQWGQGTQVTVSS
binds | 27A3 (VHH, C-term myc-His6 tag) VHH: EVQLVESGGGLVQAGGSLSLSCVASGRFFSTRVMAWYRQTPGKQREFVASMRGSGSTNYADSVRGRFAISRDNAKNTVYLQMNTLKPEDTAVYYCRDINEDQWGQGTQVTVSS
binds | 15A2 (VHH, C-term myc-His6 tag) VHH: EVQLVESGGGLAQAGGSLSLSCAASGRFFSTRVMAWYRQTPGKQREFVASMRGSGSTNYADSARGRFAISRDNAKNTVYLQMNSLKPEDTAVYYCRDINEDQWGQGTQVTVSS
binds | 17A8 (VHH, C-term myc-His6 tag) VHH: EVQLVESGGGLVQAGGSLSLSCAASGRFFSTRVMAWYRQTPGKQREFVASMRGSGSTNYADSVRGRFAISRDNAKNMVYLQMNTLKPEDTAVYYCRDINEDQWGQGTQVTVSS
binds | 13C9 (VHH, C-term myc-His6 tag) VHH: EVQLVESGGGLVQAGGSLRLSCVASGIPSIHAMAWYRQAPGKQRDWGATTYSRGGTTYNDSAKGRFTISRDNAKKTVYLQMNSLKPEDTAVYYCRDVNRDYWGQGTQVTVSS
binds | 17A10 (VHH, C-term myc-His6 tag) VHH: EVQLVESGGGLVQAGGSLRLSCVASGIPSIRAIAWYRQAPGKQRDWVATSGTGYGATYDDSVKGRFTLSRDNAKNTVYLQMNSLKPEDTAVYYCRDVNRDYWGQGTQVTVSS
binds | 17F7 (VHH, C-term myc-His6 tag) VHH: EVQLVESGGGLVQAGGSLRLSCVASGIAQSIRVMAWYRQPPGKQRDWVGTISSDGTANYADSVKGRFTISRDNAKKTMYLQMNSLKPDDTAVYYCRDVNRDYWGQGTQVTVSS
binds | 13D10 (VHH, C-term myc-His6 tag) VHH: EVQLVESGGGLVQPGGSLRLSCAASSVITLDSNAIGWFRQAPGKEREEVSCIASSDGSTYYAESVKGRFTISKDYTRNTVYLQVNSLKPEDTAVYHCATDANPNCGLNVWNSWGQGTQVTVSS
binds | 17D5 (VHH, C-term myc-His6 tag) VHH: EVQLVESGGGLVQPGGSLRLSCAASGIIGTIRTMAWYRQAPGKQRDWVASIGTRGAPVYADSVNGRFTISRDGATNTVFLQMNNLKPEDTAVYYCRDVNRDYWGQGTQVTVSS
